Laboratory results: patent US20240182536A1 (MURAL ONCOLOGY, published 2024)

B1: IL-18 variant G3A, N91L, K53S (ligand)
chain: YFAKLESKLSVIRNLNDQVLFIDQGNRPLFEDMTDSDMRDNAPRTIFIISMYSDSQPRGMAVTISVKSEKISTLSSENKIISFKEMNPPDLIKDTKSDIIFFQRSVPGHDNKMQFESSSYEGYFLASEKERDLFKLILKKEDELGDRSIMFTVQNED
B2: IL-18 variant G3F, N91E, K53S (ligand)
chain: YFFKLESKLSVIRNLNDQVLFIDQGNRPLFEDMTDSDMRDNAPRTIFIISMYSDSQPRGMAVTISVKSEKISTLSSENKIISFKEMNPPDEIKDTKSDIIFFQRSVPGHDNKMQFESSSYEGYFLASEKERDLFKLILKKEDELGDRSIMFTVQNED
notes: also called G3F/K53S/N91E
B3: mouse IL-18 G3T/H6K/L59K on monoFc scaffold (Fc fusion, not shown: small tags and cut ends)
chain: NFTRLKSTTAVIRNINDQVLFVDKRQPVFEDMTDIDQSASEPQTRLIIYMYKDSEVRGKAVTLSVKDSKMSTLSSKNKIISFEEMDPPENIDDIQSDLIFFQKRVPGHNKMEFESSLYEGHFLASQKEDDAFKLILKKKDENGDKSVMFTLTNLHQSNGGPSVFLFPPKPKDTLMISRTPEVTCVVVDVSHEDPEVKFNWYVDGVEVHNAKTKPREEQYNSTYRVVSVLTVLHQDWLNGKEYKCKVSNKALPAPIEKTISKAKGQPREPQVYTLPPSREEMTKNQVNLTCLVKGFYPSDIAVEWESNGQPENNYKTTPPVLDSDGSFFLNSTLTVDKSRWQQGNVFSCSVMHEALHNHYTQKSLSLS
B4: mouse IL-18 G3T/L59K on monoFc scaffold (Fc fusion, not shown: small tags and cut ends)
chain: NFTRLHSTTAVIRNINDQVLFVDKRQPVFEDMTDIDQSASEPQTRLIIYMYKDSEVRGKAVTLSVKDSKMSTLSSKNKIISFEEMDPPENIDDIQSDLIFFQKRVPGHNKMEFESSLYEGHFLASQKEDDAFKLILKKKDENGDKSVMFTLTNLHQSNGGPSVFLFPPKPKDTLMISRTPEVTCVVVDVSHEDPEVKFNWYVDGVEVHNAKTKPREEQYNSTYRVVSVLTVLHQDWLNGKEYKCKVSNKALPAPIEKTISKAKGQPREPQVYTLPPSREEMTKNQVNLTCLVKGFYPSDIAVEWESNGQPENNYKTTPPVLDSDGSFFLNSTLTVDKSRWQQGNVFSCSVMHEALHNHYTQKSLSLS
B5: mouse IL-18 G3V/H6K/L59K on monoFc scaffold (Fc fusion, not shown: small tags and cut ends)
chain: NFVRLKSTTAVIRNINDQVLFVDKRQPVFEDMTDIDQSASEPQTRLIIYMYKDSEVRGKAVTLSVKDSKMSTLSSKNKIISFEEMDPPENIDDIQSDLIFFQKRVPGHNKMEFESSLYEGHFLASQKEDDAFKLILKKKDENGDKSVMFTLTNLHQSNGGPSVFLFPPKPKDTLMISRTPEVTCVVVDVSHEDPEVKFNWYVDGVEVHNAKTKPREEQYNSTYRVVSVLTVLHQDWLNGKEYKCKVSNKALPAPIEKTISKAKGQPREPQVYTLPPSREEMTKNQVNLTCLVKGFYPSDIAVEWESNGQPENNYKTTPPVLDSDGSFFLNSTLTVDKSRWQQGNVFSCSVMHEALHNHYTQKSLSLS

Tests used:
[1] = molecular target: T1, human IL-18 binding protein (IL-18BP) (human, UniProt O95998 31-194); experiment: Octet BLI
T1 construct: also called hu IL-18BP; hIL18BP
T1 sequence (looked up): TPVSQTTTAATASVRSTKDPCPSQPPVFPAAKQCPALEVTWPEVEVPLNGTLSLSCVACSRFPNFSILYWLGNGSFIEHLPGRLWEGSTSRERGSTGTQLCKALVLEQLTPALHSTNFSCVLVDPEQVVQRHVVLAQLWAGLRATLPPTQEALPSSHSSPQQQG
Procedure: (§1) Octet 96red instrument was used to determine affinities of IL18 proteins to BP or receptors. 5-10 ug/ml analyte proteins were used for loading on Sartorius tips (AHC or SA). […] 120-180 s loading, 200 s association and 800 s dissociation were used for kinetics. 3-7 data points were used to calculate affinities.
Select G3/K53-substitution containing IL-18 variants and select G3/K53/N91-substitution containing TL-18 variants were tested for activity in the HEK-blue activity assay and for binding affinity to IL-18BP. As shown in the data of Table 15 and Table 16 below, each variant had similar or better activity than WT IL-18, and retained substantial activity in the presence of IL-18BP.

[2] = molecular target: T2, IL-18 receptors on HEK-Blue IL-18 reporter cells (InvivoGen) (UniProt Q13478 19-541; O95256 20-599); experiment: cell-based or functional assay
T2 sequence (looked up) 1: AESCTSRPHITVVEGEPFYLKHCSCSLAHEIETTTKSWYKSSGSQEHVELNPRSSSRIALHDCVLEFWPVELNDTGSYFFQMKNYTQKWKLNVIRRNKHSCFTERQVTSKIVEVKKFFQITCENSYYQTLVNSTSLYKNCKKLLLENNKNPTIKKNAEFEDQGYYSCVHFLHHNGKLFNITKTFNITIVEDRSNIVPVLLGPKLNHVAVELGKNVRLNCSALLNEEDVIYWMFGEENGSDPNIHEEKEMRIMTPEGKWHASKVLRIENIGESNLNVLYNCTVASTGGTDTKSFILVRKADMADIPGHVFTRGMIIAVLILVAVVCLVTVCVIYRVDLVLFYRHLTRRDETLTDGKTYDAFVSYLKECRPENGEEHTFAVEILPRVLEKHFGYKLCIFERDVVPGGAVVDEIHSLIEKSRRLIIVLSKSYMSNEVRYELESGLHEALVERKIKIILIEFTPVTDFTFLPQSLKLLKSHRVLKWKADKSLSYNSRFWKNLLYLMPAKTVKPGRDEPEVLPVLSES
T2 sequence (looked up) 2: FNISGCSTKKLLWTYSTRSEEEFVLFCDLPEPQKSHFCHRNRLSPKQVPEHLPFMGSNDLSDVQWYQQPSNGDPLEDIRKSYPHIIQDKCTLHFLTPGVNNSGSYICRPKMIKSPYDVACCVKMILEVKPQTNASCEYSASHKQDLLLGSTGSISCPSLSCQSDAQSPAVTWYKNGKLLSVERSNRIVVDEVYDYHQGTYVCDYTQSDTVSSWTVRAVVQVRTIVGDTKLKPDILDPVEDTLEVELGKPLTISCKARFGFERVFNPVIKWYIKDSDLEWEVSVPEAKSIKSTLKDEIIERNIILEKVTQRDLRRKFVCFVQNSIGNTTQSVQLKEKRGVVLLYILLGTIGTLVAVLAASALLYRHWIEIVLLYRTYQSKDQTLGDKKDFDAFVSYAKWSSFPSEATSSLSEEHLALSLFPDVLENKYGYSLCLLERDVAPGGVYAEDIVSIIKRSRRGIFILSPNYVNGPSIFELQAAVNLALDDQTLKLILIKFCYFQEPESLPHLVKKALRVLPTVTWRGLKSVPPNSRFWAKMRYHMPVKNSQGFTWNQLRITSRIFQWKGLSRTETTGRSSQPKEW

[3] = molecular target: T1, human IL-18 binding protein (IL-18BP); experiment: cell-based or functional assay
[4] = molecular target: T3, mouse IL-18 receptor alpha (mouse, UniProt Q61098 20-326, limits assumed); experiment: Octet BLI, monoFc scaffold
T3 construct: also called Mouse IL18Ra; mouse IL-18R alpha
T3 sequence (looked up): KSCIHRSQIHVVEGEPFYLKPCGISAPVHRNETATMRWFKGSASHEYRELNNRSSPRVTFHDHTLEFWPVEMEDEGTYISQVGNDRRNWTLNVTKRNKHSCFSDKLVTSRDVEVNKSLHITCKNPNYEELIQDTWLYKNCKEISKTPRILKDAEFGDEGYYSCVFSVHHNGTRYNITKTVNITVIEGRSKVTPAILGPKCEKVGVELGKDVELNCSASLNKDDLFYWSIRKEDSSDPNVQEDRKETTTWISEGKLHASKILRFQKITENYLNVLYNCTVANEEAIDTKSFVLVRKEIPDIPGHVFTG
Procedure: as §1
(§2) Several mouse variants were next tested for binding affinity to mouse IL-18R alpha and mouse IL-18BP.

[5] = molecular target: T4, mouse IL-18 binding protein (mouse, UniProt Q9Z0M9 29-193); experiment: Octet BLI, monoFc scaffold
T4 construct: also called Mouse IL18BP; Mouse IL-18BP
T4 sequence (looked up): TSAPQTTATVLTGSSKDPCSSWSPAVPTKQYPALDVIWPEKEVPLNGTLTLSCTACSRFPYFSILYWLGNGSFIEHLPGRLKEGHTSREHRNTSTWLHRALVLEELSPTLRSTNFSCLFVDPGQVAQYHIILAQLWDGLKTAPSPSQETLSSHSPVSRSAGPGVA
Procedure: as §1, §2

Binder	Kd [1]	koff [1]	kon [1]	HEK-Blue Ec50 (pM), -IL-18BP [2]	HEK-Blue Ec50 (pM), +IL-18BP (50 nM) [3]	Kd [4]	binding result [5]
B1	4.8 nM	0.00103 s⁻¹	216000 M⁻¹ s⁻¹	0.71 pM	5.82 pM		
B2	9.1 nM	0.00195 s⁻¹	213000 M⁻¹ s⁻¹	2.55 pM	10.7 pM		
B3						12.8 nM	no binding
B4						12.3 nM	no binding
B5						24.2 nM	no binding
